The Immune Epitope Database (IEDB)
One block for each sequence: values may come before it.

Columns and labels:
[1] = target: HLA-A*01:01; assay: IEDB peptide-MHC binding, purified MHC/competitive/fluorescence; ≥ and ≤ were set here for values at or beyond the usual limits of such assays; settings: source organism: Monodelphis domestica
[2] = target: HLA-A*02:01; assay: as above; settings: source organism: Monodelphis domestica
[3] = target: HLA-A*03:01; assay: as above; settings: source organism: Monodelphis domestica
[4] = target: HLA-A*11:01; assay: as above; settings: source organism: Monodelphis domestica
[5] = target: HLA-A*24:02; assay: as above; settings: source organism: Monodelphis domestica
[6] = target: HLA-A*25:01; assay: as above; settings: source organism: Monodelphis domestica
[7] = target: HLA-A*29:02; assay: as above; settings: source organism: Monodelphis domestica
[8] = target: HLA-A*31:01; assay: as above; settings: source organism: Monodelphis domestica
[9] = target: HLA-A*68:02; assay: as above; settings: source organism: Monodelphis domestica
[10] = target: HLA-B*07:02; assay: as above; settings: source organism: Monodelphis domestica
[11] = target: HLA-B*08:01; assay: as above; settings: source organism: Monodelphis domestica
[12] = target: HLA-B*14:02; assay: as above; settings: source organism: Monodelphis domestica
[13] = target: HLA-B*18:01; assay: as above; settings: source organism: Monodelphis domestica
[14] = target: HLA-B*35:01; assay: as above; settings: source organism: Monodelphis domestica
[15] = target: HLA-B*37:01; assay: as above; settings: source organism: Monodelphis domestica
[16] = target: HLA-B*40:02; assay: as above
[17] = target: HLA-B*44:03; assay: as above; settings: source organism: Monodelphis domestica
[18] = target: HLA-B*51:01; assay: as above; settings: source organism: Monodelphis domestica
[19] = target: HLA-B*53:01; assay: as above; settings: source organism: Monodelphis domestica
[20] = target: HLA-B*58:01; assay: as above; settings: source organism: Monodelphis domestica
[21] = target: HLA-B*40:01; assay: IEDB peptide-MHC binding, purified MHC/competitive/fluorescence; filed as Kd, often an IC50 or EC50 that approximates it; ≥ and ≤ were set here for values at or beyond the usual limits of such assays; settings: source organism: Bacillus cereus G9241
[22] = target: HLA-A*02:01; assay: as above; settings: source organism: Giardia lamblia ATCC 50803
[23] = target: HLA-A*02:03; assay: as above; settings: source organism: Giardia lamblia ATCC 50803
[24] = target: HLA-A*02:12; assay: as above; settings: source organism: Giardia lamblia ATCC 50803
[25] = target: HLA-A*02:16; assay: as above; settings: source organism: Giardia lamblia ATCC 50803
[26] = target: HLA-A*02:19; assay: as above; settings: source organism: Giardia lamblia ATCC 50803
[27] = target: HLA-A*03:01; assay: as above; settings: source organism: Giardia lamblia ATCC 50803
[28] = target: HLA-A*25:01; assay: as above; settings: source organism: Giardia lamblia ATCC 50803
[29] = target: HLA-A*26:01; assay: as above; settings: source organism: Giardia lamblia ATCC 50803
[30] = target: HLA-A*29:02; assay: as above; settings: source organism: Giardia lamblia ATCC 50803
[31] = target: HLA-A*68:02; assay: as above; settings: source organism: Giardia lamblia ATCC 50803
[32] = target: HLA-A*69:01; assay: as above; settings: source organism: Giardia lamblia ATCC 50803
[33] = target: HLA-B*27:03; assay: as above; settings: source organism: Giardia lamblia ATCC 50803
[34] = target: HLA-B*39:01; assay: as above
[35] = target: HLA-B*46:01; assay: as above; settings: source organism: Giardia lamblia ATCC 50803
[36] = target: HLA-A*02:01; assay: IEDB peptide-MHC binding, purified MHC/direct/fluorescence; filed as Kd, often an IC50 or EC50 that approximates it; ≥ and ≤ were set here for values at or beyond the usual limits of such assays; settings: source organism: Vibrio parahaemolyticus AQ3810
[37] = target: HLA-A*02:06; assay: as above; settings: source organism: Vibrio parahaemolyticus AQ3810
[38] = target: HLA-A*02:12; assay: as above; settings: source organism: Vibrio parahaemolyticus AQ3810
[39] = target: HLA-A*02:16; assay: as above; settings: source organism: Vibrio parahaemolyticus AQ3810
[40] = target: HLA-A*03:01; assay: as above; settings: source organism: Vibrio parahaemolyticus AQ3810
[41] = target: HLA-A*26:01; assay: as above; settings: source organism: Vibrio parahaemolyticus AQ3810
[42] = target: HLA-A*29:02; assay: as above; settings: source organism: Vibrio parahaemolyticus AQ3810
[43] = target: HLA-A*69:01; assay: as above; settings: source organism: Vibrio parahaemolyticus AQ3810
[44] = target: HLA-B*15:01; assay: as above; settings: source organism: Vibrio parahaemolyticus AQ3810
[45] = target: HLA-B*15:17; assay: as above; settings: source organism: Vibrio parahaemolyticus AQ3810
[46] = target: HLA-B*18:01; assay: as above; settings: source organism: Vibrio parahaemolyticus AQ3810
[47] = target: HLA-B*27:03; assay: as above; settings: source organism: Vibrio parahaemolyticus AQ3810
[48] = target: HLA-B*46:01; assay: as above; settings: source organism: Vibrio parahaemolyticus AQ3810
[49] = target: HLA-B*51:01; assay: as above; settings: source organism: Vibrio parahaemolyticus AQ3810
[50] = target: HLA-B*57:01; assay: as above; settings: source organism: Vibrio parahaemolyticus AQ3810
[51] = target: HLA-B*58:01; assay: IEDB peptide-MHC binding, purified MHC/competitive/fluorescence; filed as Kd, often an IC50 or EC50 that approximates it; ≥ and ≤ were set here for values at or beyond the usual limits of such assays; settings: source organism: Escherichia coli F11
[52] = target: HLA-A*02:05; assay: IEDB peptide-MHC binding, purified MHC/competitive/radioactivity; filed as Kd, often an IC50 or EC50 that approximates it; ≥ and ≤ were set here for values at or beyond the usual limits of such assays; settings: source organism: Homo sapiens
[53] = target: HLA-B*44:02; assay: IEDB peptide-MHC binding, purified MHC/competitive/fluorescence; ≥ and ≤ were set here for values at or beyond the usual limits of such assays; settings: source organism: Homo sapiens
[54] = target: HLA-B*27:05; assay: IEDB peptide-MHC binding, purified MHC/competitive/fluorescence; filed as Kd, often an IC50 or EC50 that approximates it; ≥ and ≤ were set here for values at or beyond the usual limits of such assays; settings: source organism: Shigella boydii CDC 3083-94

Sequence: GEIVLCHVL
Kd [21]: 5 nM

Sequence: KVSWRWMVY
Kd [22]: ≥ 20 µM
Kd [23]: ≥ 20 µM
Kd [24]: ≥ 20 µM
Kd [25]: ≥ 20 µM
Kd [26]: ≥ 20 µM
Kd [27]: 4.3 nM
Kd [28]: ≥ 20 µM
Kd [29]: ≥ 20 µM
Kd [30]: 148 nM
Kd [31]: ≥ 20 µM
Kd [32]: ≥ 20 µM
Kd [33]: ≥ 20 µM
Kd ([34]; source organism: Giardia lamblia ATCC 50803): ≥ 20000 nM
Kd [35]: ≥ 20 µM

Sequence: MQGKDFNHL
Kd [36]: ≥ 20 µM
Kd [37]: 9 nM
Kd [38]: 1210 nM
Kd [39]: ≥ 20 µM
Kd [40]: ≥ 20 µM
Kd [41]: ≥ 20 µM
Kd [42]: ≥ 20 µM
Kd [43]: ≥ 20 µM
Kd [44]: ≥ 20 µM
Kd [45]: ≥ 20 µM
Kd [46]: ≥ 20 µM
Kd [47]: ≥ 20 µM
Kd [48]: ≥ 20 µM
Kd [49]: ≥ 20 µM
Kd [50]: ≥ 20 µM

Sequence: WRLVYASAV
Kd [54]: 75.3 nM
Kd ([34]; source organism: Shigella boydii CDC 3083-94): 11.8 nM

More lines, now with the values ahead:

IC50 [1]: ≥ 20 µM
IC50 [2]: 5.3 nM
IC50 [3]: ≥ 20 µM
IC50 [4]: ≥ 20 µM
IC50 [5]: ≥ 20 µM
IC50 [6]: ≥ 20 µM
IC50 [7]: 206 nM
IC50 [8]: ≥ 20 µM
IC50 [9]: ≥ 20 µM
IC50 [10]: ≥ 20 µM
IC50 [11]: ≥ 20 µM
IC50 [12]: ≥ 20 µM
IC50 [13]: ≥ 20 µM
IC50 [14]: 206 nM
IC50 [15]: ≥ 20 µM
IC50 ([16]; source organism: Monodelphis domestica): ≥ 20000 nM
IC50 [17]: ≥ 20 µM
IC50 [18]: ≥ 20 µM
IC50 [19]: ≥ 20 µM
IC50 [20]: ≥ 20 µM
Sequence: FLLPILSQIYT

Kd [51]: 143 nM
Sequence: QHFGLIPQW

Kd [52]: 90 nM
Sequence: RLFPGLAIKI

IC50 ([16]; source organism: Homo sapiens): 12.4 nM
IC50 [53]: ≥ 20 µM
Sequence: SDFQVHFL
